The target in this assay is T1, human Rab7 Q67L (residues 2–195), GTP-loaded (human, UniProt P51149 2-195, Q67L).
T1 construct: Supplemented with 1 mM GTP; Mg2+ and GTP are seen in the structure; also called Rab7A; Rab7-GTP; source: E. coli BL21(DE3), purified (Ni-NTA, thrombin cleavage, SEC; same procedure as the PDZD8 CC)
Kind of assay: ITC; 1 mM MBP-PDZD8 CC in the syringe injected (2 μl × 25) into 0.1 mM Rab7 in the cell; 20 °C; 20 mM Tris-HCl pH 7.5, 150 mM NaCl; Rab7 Q67L loaded with 1 mM GTP, Rab7 T22N with 1 mM GDP; two-site model for wild type, independent (single-site) model for mutants. The note with it: both partners purified. For orientation: In ITC the heat of successive injections is recorded.

Substitutions are numbered along the chain they refer to. Names may count otherwise.

T1 sequence (P51149 2-195 Q67L): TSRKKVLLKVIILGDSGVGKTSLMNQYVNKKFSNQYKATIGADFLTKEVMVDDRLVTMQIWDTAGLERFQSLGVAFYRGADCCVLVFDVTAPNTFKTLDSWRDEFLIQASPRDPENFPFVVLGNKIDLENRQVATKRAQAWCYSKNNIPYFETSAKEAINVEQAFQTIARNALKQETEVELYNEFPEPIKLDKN

B1: MBP-PDZD8 CC, residues 980–1123 (domain or fragment, human, UniProt Q8NEN9 980-1123, looked up)
chain: SDTEVCGPNSPSKRGNSTGIKLVRKEGGLDDSVFIAVKEIGRDLYRGLPTEERIQKLEFMLDKLQNEIDQELEHNNSLVREEKETTDTRKKSLLSAALAKSGERLQALTLLMIHYRAGIEDIETLESLSLDQHSKKISKYTDDT
notes: source: purified recombinant protein; not shown: His tag, N-terminal, kept; MBP, N-terminal, kept
For B1, the binding result is “binds”.

B2: MBP-PDZD8 CC A1086R (domain or fragment, human, UniProt Q8NEN9 994-1123, looked up)
chain: GNSTGIKLVRKEGGLDDSVFIAVKEIGRDLYRGLPTEERIQKLEFMLDKLQNEIDQELEHNNSLVREEKETTDTRKKSLLSAALAKSGERLQRLTLLMIHYRAGIEDIETLESLSLDQHSKKISKYTDDT
notes: also called PDZD8 A1086R; source: purified recombinant protein; not shown: His tag, N-terminal, kept; MBP, N-terminal, kept
B2 displayed a Kd of 0.66 µM.

B3: MBP-PDZD8 CC I1092E (domain or fragment, human, UniProt Q8NEN9 994-1123, looked up)
chain: B2 chain with R93A, I99E
notes: also called PDZD8 I1092E; source: purified recombinant protein; not shown: His tag, N-terminal, kept; MBP, N-terminal, kept
B3 showed an equilibrium dissociation constant (Kd) of 9.2 µM.

A word on the Kd: it is the equilibrium constant for the complex coming apart. Lower therefore signals higher affinity.

(Values after article PMC8458453, “Structural basis of human PDZD8–Rab7 interaction for the ER-late endosome tethering” (Scientific Reports, 2021).)
